In article PMC8053111, “MKRN3-mediated ubiquitination of Poly(A)-binding proteins modulates the stability and translation of GNRH1 mRNA in mammalian puberty” (Nucleic Acids Research, 2021):

Tests used:
[1] = biological target: T1, PABPC1-His6 (human, UniProt P11940 1-636); test: pull-down; GST pull-down: 20 μg purified Gst-MKRN or MKRN3 truncation, 20 μg PABP-His6 or truncation and Glutathione Sepharose 4B, 4°C overnight in 500 μl of 20 mM Tris-Cl, 100 mM NaCl, 5 mM MgCl2, 1 mM EDTA, 1 mM DTT, 0.5% NP-40, 10 μg/ml BSA, pH 7.5; five washes; Coomassie staining and anti-His immunoblot; details: both partners purified
T1 construct: PABPC1, human, full length; Written PABPC1-His6; also called His6-tagged PABPC1; full length PABPC1; source: E. coli BL21, purified (Ni beads, eluted with imidazole, dialyzed)

[2] = biological target: T2, PABPC3-His6 (human, UniProt Q9H361 1-631); test: as above; details: both partners purified
T2 construct: PABPC3, human; also called His6-tagged PABPC3; source: E. coli BL21, purified (Ni beads, eluted with imidazole, dialyzed)

[3] = biological target: PABPC1 (human, UniProt P11940 1-636); test: EMSA; unmodified; EMSA Binding Buffer (Beyotime, 5x stock; composition, salt and pH not given), room temperature, 1 h; 8% polyacrylamide 0.5x TBE gel; details: protein: recombinant; tags: Flag-His6 (pET28a-PABPC1-Flag-His6); label: 32P (gamma-32P, stated at 3' end by T4 PNK); single strand
[4] = biological target: PABPC4 (human, UniProt Q13310 1-644); test: as above; details: protein: recombinant; tags: Flag-His6 (pET28a-PABPC4-Flag-His6); label: 32P (gamma-32P, stated at 3' end by T4 PNK); single strand
PABPC4, sequence (Q13310 whole entry): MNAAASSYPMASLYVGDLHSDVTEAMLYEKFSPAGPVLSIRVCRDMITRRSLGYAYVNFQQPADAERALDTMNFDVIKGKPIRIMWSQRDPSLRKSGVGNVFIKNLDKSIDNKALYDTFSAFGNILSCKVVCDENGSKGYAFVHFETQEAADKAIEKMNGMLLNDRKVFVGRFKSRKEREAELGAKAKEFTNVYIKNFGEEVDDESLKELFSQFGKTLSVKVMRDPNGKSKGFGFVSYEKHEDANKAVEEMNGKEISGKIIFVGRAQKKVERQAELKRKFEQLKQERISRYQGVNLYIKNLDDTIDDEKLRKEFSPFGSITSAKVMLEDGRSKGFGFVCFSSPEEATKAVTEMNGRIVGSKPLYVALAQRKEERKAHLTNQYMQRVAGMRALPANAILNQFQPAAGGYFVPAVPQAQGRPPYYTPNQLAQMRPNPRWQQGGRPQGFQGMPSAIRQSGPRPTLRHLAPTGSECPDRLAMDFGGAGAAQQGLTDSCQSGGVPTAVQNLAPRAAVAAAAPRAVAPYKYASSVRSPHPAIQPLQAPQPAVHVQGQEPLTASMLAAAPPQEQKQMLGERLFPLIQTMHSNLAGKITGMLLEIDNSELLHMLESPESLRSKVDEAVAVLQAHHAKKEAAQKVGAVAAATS

T1 sequence (P11940 whole entry, the tested form may be a part): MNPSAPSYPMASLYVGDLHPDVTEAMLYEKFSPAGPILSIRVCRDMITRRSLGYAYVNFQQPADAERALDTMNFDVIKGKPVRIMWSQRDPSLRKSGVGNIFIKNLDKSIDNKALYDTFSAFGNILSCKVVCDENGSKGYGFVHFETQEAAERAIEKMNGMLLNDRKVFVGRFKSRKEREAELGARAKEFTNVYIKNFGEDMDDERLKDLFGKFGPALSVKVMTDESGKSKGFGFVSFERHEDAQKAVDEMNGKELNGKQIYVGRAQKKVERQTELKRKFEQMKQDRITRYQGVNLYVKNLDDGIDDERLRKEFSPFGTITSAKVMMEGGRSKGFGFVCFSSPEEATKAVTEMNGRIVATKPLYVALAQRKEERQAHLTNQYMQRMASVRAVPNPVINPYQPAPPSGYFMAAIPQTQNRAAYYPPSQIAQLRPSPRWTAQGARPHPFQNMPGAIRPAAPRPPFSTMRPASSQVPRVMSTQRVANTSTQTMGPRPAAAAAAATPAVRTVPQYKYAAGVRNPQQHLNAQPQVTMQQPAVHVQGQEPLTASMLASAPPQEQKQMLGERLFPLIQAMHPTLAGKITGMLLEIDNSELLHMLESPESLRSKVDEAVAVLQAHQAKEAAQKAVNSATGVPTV
PABPC1, sequence (P11940 whole entry): as the sequence (P11940 whole entry, the tested form may be a part) above
T2 sequence (Q9H361 whole entry): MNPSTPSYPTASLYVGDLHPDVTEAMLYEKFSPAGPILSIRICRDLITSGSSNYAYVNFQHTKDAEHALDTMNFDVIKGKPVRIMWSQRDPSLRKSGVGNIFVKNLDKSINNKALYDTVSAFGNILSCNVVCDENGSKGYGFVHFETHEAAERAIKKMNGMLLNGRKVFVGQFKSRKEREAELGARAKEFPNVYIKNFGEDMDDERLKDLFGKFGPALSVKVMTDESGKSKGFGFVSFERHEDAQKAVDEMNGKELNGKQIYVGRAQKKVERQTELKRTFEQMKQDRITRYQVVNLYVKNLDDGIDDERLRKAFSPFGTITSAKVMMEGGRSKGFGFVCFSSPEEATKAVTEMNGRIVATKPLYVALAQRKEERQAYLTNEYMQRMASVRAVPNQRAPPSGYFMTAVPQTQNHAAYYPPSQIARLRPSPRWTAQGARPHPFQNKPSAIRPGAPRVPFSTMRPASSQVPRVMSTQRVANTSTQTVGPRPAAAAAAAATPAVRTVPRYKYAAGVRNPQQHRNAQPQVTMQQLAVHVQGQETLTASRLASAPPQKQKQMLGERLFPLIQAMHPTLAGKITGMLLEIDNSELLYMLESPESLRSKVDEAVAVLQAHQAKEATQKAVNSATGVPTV

binding result [1] | binding result [2] | Binder | binding result [3] | binding result [4]
binds | – | Gst-MKRN3 middle region (126-295aa) (domain or fragment, human, UniProt Q13064 126-295, looked up, source: E. coli BL21, purified (glutathione beads, eluted with reduced glutathione, dialyzed)) MATEGGVSPPGASAGGGPSTAAHIEPPTQEVAEAPPAASSLSLPVIGSAAERGFFEAERDNADRGAAGGAGVESWADAIEFVPGQPYRGRWVASAPEAPLQSSETERKQMAVGSGLRFCYYASRGVCFRGESCMYLHGDICDMCGLQTLHPMDAAQREEHMRACIEAHEK | – | –
binds | binds | recombinant Gst-tagged MKRN3 (natural protein, human, UniProt Q13064 1-507, looked up, MKRN3, human, full length; Written Gst-MKRN3; also called Gst-MKRN3; full length MKRN3; source: E. coli BL21, purified (glutathione beads, eluted with reduced glutathione, dialyzed)) MEEPAAPSEAHEAAGAQAGAEAAREGVSGPDLPVCEPSGESAAPDSALPHAARGWAPFPVAPVPAHLRRGGLRPAPASGGGAWPSPLPSRSSGIWTKQIICRYYIHGQCKEGENCRYSHDLSGRKMATEGGVSPPGASAGGGPSTAAHIEPPTQEVAEAPPAASSLSLPVIGSAAERGFFEAERDNADRGAAGGAGVESWADAIEFVPGQPYRGRWVASAPEAPLQSSETERKQMAVGSGLRFCYYASRGVCFRGESCMYLHGDICDMCGLQTLHPMDAAQREEHMRACIEAHEKDMELSFAVQRGMDKVCGICMEVVYEKANPNDRRFGILSNCNHSFCIRCIRRWRSARQFENRIVKSCPQCRVTSELVIPSEFWVEEEEEKQKLIQQYKEAMSNKACRYFAEGRGNCPFGDTCFYKHEYPEGWGDEPPGPGGGSFSAYWHQLVEPVRMGEGNMLYKSIKKELVVLRLASLLFKRFLSLRDELPFSEDQWDLLHYELEEYFNLIL | – | –
– | – | AAAAAAAAAAAAAAAAAAAAAAAAAAAAAA (ssRNA) [(A)30 RNA] | binds | binds
